Assay results: paper PMC7864917

Biological target: wild-type pig RyR1 (ryanodine receptor 1) (pig (purified from porcine skeletal muscle)) (UniProt P16960)
Chain of UniProt P16960 (P16960 whole entry): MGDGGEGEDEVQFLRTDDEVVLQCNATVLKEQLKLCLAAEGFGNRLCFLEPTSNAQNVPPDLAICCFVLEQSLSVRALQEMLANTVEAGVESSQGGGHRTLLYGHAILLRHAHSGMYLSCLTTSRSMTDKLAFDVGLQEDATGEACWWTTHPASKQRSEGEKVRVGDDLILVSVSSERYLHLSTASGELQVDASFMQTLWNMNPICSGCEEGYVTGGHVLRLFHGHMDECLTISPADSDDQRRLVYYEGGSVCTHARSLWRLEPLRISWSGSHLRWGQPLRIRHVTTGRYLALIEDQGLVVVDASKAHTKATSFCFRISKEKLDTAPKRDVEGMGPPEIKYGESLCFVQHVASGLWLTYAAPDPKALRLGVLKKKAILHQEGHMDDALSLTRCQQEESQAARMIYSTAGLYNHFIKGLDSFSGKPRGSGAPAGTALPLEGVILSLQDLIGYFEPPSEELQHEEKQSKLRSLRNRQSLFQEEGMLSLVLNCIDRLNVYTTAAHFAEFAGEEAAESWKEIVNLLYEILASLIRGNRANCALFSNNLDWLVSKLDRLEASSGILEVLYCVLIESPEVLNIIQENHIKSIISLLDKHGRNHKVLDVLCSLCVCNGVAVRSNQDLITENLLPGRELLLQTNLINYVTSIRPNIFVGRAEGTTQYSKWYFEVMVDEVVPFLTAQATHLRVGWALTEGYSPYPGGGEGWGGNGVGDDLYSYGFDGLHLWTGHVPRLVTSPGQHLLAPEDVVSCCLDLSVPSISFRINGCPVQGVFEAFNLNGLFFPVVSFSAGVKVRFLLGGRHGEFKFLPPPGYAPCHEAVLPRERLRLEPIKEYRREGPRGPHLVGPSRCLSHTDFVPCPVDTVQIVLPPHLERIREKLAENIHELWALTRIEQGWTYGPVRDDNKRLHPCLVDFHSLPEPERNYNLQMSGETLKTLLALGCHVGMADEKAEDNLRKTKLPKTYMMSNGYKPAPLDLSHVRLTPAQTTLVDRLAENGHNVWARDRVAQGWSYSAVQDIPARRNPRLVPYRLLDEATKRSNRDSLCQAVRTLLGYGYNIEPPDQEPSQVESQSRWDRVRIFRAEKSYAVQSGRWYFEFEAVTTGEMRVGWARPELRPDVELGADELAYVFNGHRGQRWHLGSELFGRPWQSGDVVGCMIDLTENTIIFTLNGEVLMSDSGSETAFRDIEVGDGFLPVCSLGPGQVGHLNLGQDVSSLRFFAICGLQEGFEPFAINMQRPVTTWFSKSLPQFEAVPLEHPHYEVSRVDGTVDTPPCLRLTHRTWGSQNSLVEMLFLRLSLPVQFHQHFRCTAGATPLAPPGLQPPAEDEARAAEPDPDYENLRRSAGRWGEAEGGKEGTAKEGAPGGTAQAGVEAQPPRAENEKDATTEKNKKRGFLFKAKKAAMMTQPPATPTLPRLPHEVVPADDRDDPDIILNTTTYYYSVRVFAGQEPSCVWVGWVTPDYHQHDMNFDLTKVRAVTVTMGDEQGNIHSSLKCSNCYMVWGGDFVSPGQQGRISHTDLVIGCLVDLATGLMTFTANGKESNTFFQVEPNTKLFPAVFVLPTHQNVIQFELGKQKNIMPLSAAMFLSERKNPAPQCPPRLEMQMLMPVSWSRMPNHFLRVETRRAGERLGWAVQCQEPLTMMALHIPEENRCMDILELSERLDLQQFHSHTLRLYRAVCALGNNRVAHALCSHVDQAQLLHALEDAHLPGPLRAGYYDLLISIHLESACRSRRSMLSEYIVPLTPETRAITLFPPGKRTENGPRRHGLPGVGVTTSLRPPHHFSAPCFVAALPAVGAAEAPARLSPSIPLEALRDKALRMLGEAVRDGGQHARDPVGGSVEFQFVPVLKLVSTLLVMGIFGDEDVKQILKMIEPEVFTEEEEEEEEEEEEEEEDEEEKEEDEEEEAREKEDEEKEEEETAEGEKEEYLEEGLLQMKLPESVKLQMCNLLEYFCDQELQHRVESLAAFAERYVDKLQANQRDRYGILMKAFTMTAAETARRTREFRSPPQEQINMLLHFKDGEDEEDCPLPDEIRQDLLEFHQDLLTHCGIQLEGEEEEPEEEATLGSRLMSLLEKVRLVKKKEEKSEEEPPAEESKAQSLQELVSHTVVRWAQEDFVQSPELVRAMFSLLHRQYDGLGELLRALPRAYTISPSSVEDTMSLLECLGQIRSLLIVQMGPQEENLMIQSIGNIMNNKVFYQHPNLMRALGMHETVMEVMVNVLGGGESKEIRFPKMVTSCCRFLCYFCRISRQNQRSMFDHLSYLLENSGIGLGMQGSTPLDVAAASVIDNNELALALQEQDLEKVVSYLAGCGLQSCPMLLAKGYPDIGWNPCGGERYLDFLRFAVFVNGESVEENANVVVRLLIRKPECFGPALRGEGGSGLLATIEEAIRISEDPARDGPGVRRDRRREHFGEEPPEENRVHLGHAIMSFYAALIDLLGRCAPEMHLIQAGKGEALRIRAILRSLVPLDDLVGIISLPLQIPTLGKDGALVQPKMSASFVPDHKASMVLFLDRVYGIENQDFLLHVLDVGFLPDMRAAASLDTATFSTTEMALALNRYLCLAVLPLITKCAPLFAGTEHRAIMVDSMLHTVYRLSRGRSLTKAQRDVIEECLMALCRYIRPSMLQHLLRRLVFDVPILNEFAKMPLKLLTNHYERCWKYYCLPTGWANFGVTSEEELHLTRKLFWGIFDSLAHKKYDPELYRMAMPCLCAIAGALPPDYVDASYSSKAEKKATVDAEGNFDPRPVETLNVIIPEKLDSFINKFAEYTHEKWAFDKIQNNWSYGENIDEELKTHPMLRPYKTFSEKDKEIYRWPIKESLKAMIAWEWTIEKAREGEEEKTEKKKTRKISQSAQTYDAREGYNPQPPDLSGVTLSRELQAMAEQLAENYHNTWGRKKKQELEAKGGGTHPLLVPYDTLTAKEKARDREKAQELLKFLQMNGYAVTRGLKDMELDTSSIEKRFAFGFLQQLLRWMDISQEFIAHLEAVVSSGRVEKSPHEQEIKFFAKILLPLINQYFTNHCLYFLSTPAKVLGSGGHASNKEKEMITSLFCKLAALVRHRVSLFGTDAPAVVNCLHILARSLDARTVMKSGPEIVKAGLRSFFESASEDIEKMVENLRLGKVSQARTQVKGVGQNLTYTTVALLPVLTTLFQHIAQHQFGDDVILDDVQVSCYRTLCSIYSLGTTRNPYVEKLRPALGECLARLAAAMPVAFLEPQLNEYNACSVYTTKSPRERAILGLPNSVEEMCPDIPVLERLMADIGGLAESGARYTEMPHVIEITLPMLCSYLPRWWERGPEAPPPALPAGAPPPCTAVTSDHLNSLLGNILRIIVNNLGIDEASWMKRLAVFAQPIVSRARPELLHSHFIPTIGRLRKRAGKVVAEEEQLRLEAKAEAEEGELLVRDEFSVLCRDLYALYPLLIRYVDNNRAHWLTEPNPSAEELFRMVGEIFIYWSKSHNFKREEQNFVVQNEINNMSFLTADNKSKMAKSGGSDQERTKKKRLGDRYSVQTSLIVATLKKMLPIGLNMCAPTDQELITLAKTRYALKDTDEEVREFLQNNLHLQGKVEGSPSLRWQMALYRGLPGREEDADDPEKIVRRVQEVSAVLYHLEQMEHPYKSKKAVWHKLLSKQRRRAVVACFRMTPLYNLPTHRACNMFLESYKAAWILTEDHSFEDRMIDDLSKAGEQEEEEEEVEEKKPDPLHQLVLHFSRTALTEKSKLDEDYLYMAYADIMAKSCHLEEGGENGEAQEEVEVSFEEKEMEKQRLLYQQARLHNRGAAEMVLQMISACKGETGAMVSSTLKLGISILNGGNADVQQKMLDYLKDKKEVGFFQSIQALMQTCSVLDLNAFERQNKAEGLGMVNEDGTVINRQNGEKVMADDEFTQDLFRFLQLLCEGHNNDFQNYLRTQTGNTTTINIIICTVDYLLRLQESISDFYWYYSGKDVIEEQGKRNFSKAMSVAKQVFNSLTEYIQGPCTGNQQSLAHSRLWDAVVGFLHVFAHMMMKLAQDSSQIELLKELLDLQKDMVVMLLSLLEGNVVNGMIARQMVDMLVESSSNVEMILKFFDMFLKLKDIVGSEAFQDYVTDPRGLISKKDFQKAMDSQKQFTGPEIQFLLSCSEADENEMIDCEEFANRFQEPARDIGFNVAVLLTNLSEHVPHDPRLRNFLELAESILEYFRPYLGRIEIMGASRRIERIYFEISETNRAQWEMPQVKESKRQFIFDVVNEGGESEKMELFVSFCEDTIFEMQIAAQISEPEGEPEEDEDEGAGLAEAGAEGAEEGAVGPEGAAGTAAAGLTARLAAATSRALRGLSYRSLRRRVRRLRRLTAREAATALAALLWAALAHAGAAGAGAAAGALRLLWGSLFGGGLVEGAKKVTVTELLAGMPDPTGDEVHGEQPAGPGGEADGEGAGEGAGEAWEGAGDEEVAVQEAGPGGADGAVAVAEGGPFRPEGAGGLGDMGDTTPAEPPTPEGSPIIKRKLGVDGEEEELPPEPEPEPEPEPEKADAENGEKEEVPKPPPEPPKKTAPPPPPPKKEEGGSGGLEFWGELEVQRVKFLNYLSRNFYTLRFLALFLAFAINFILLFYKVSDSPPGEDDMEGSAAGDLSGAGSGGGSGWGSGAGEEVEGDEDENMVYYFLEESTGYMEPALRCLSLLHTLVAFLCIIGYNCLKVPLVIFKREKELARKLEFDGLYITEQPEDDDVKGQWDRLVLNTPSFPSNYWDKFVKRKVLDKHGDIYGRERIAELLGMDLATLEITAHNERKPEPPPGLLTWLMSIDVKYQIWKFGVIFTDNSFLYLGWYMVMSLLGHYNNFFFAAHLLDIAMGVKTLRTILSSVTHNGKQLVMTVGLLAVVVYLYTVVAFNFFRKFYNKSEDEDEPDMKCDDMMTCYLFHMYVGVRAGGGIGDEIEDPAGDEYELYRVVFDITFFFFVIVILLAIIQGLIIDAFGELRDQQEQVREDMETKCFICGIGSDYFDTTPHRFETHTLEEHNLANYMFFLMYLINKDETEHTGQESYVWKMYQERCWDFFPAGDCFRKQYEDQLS

single-channel open probability (Po) in planar lipid bilayers with 1 uM calmodulin, 40 nM free Ca2+, 2 mM ATP: 2 fold
Substance: apo-calmodulin (from UniProt P0DP23 1-149) (natural protein)
